Experimental data: patent US20240384250A1, “FIBROBLAST GROWTH FACTOR 23 MODULATING COMPOUNDS” (THE UAB RESEARCH FOUNDATION, priority 2021, published 2024)
Entries after “also recorded” stand apart in the source; their conditions may differ.

B1: sKL: recombinant soluble α-klotho ectodomain, mouse aa 35-982 and human aa 34-981, FLAG- or Strep/His-tagged, purified from HEK293 cells (protein)
chain: EPGDGAQTWARFSRPPAPEAAGLFQGTFPDGFLWAVGSAAYQTEGGWQQHGKGASIWDTFTHHPLAPPGDSRNASLPLGAPSPLQPATGDVASDSYNNVFRDTEALRELGVTHYRFSISWARVLPNGSAGVPNREGLRYYRRLLERLRELGVQPVVTLYHWDLPQRLQDAYGGWANRALADHFRDYAELCFRHFGGQVKYWITIDNPYVVAWHGYATGRLAPGIRGSPRLGYLVAHNLLLAHAKVWHLYNTSFRPTQGGQVSIALSSHWINPRRMTDHSIKECQKSLDFVLGWFAKPVFIDGDYPESMKNNLSSILPDFTESEKKFIKGTADFFALCFGPTLSFQLLDPHMKFRQLESPNLRQLLSWIDLEFNHPQIFIVENGWFVSGTTKRDDAKYMYYLKKFIMETLKAIKLDGVDVIGYTAWSLMDGFEWHRGYSIRRGLFYVDFLSQDKMLLPKSSALFYQKLIEKNGFPPLPENQPLEGTFPCDFAWGVVDNYIQVDTTLSQFTDLNVYLWDVHHSKRLIKVDGVVTKKRKSYCVDFAAIQPQIALLQEMHVTHFRFSLDWALILPLGNQSQVNHTILQYYRCMASELVRVNITPVVALWQPMAPNQGLPRLLARQGAWENPYTALAFAEYARLCFQELGHHVKLWITMNEPYTRNMTYSAGHNLLKAHALAWHVYNEKFRHAQNGKISIALQADWIEPACPFSQKDKEVAERVLEFDIGWLAEPIFGSGDYPWVMRDWLNQRNNFLLPYFTEDEKKLIQGTFDFLALSHYTTILVDSEKEDPIKYNDYLEVQEMTDITWLNSPSQVAVVPWGLRKVLNWLKFKYGDLPMYIISNGIDDGLHAEDDQLRVYYMQNYINEALKAHILDGINLCGYFAYSFNDRTAPRFGLYRYAADQFEPKASMKHYRKIIDSNGFPGPETLERFCPEEFTVCTECSFFHTRKS
modifications: left off: small tags and cut ends
notes: recombinant soluble α-klotho ectodomain, mouse aa 35-982 and human aa 34-981, FLAG- or Strep/His-tagged, purified from HEK293 cells
B2: FGF23: recombinant fibroblast growth factor 23 protein from R&D Systems (protein)
chain: YPDTSPLLGSNWGSLTHLYTATARTSYHLQIHRDGHVDGTPHQTIYSALMITSEDAGSVVITGAMTRRFLCMDLHGNIFGSLHFSPENCKFRQWTLENGYDVYLSQKHHYLVSLGRAKRIFQPGTNPPPFSQFLARRNEVPLLHFYTVRPRRHTRSAEDPPERDPLNVLKPRPRATPVPVSCSRELPSAEEGGPAASDPLGVLRRGRGDARGGAGGADRCRPFPRFV

System: neonatal rat ventricular myocytes
Test: Hypertrophic growth of isolated neonatal rat ventricular myocytes (cell area)
Assay type: cell-based
Procedure: Neonatal rat ventricular myocytes (NRVMs) were isolated using a kit according to the manufacturer's protocol (LK003300, Worthington Biochemical Corporation), as done previously.^13,16,17 Briefly, hearts from 1- to 3-day-old Sprague Dawley rats (Envigo) were harvested and minced in calcium- and magnesium-free Hanks balanced salt solution and the tissue was digested with 50 μg/ml of trypsin at 4° C. for 20 to 24 hours. Soybean trypsin inhibitor in Hanks balanced salt solution was added, and the tissue was further digested with collagenase (in Leibovitz L-15 medium) under slow rotation (0.14 g) at 37° C. for 45 minutes. Cells were broken up by triturating the suspension 20× with a standard 10-ml plastic serological pipette. Cells were then filtered through a cell strainer (70 μm, BD Falcon). Cells were incubated at room temperature for 20 minutes and spun at 100 g for 5 minutes. The cell pellet was resuspended in plating medium (DMEM Base [10013CV, Corning], 17% M199 [12350039, Gibco], 15% FBS [26140079, Gibco], I× Pen/Strep [15140122, Gibco]). For cell tracings, NRVMs were grown in 24-well plates on glass coverslips (CLS1760012, Chemglass). Slips were precoated with laminin (23017015, Invitrogen) at 10 μg/ml for 1 hour at 37° C. dissolved in PBS. Laminin was aspirated, and cells and medium were added. Cells were counted by a hemocytometer and plated at 4×10^5 cells per well. […] After 48 hours, maintenance medium was replaced, and after another 48 hours, cells were ready for treatment, giving a total of 72 hours of plating medium and 96 hours of maintenance medium before treatment. […]
The medium was aspirated, and cultured NRVMs were fixed in 2% paraformaldehyde (P-6148, Sigma-Aldrich) and 4% sucrose dissolved in PBS for 5 minutes followed by permeabilization with 1% Triton X-100 dissolved in PBS for 10 minutes. […] The cross-sectional area of myocytes was measured on the basis of α-actinin-positive staining using ImageJ software (v1.53, National Institutes of Health). […]

| Molecule | FGF23-induced hypertrophy (increase in cell area) (cotreatment with FGF23 25 ng/ml, 48 hours, sKL 100 ng/ml, anti-FGF23 1 μg/ml) | NRVM area, treatment by itself (without FGF23, 48 hours) | cell area (FGF23 alone, 48 hours) |
| --- | --- | --- | --- |
| B1 | FGF23 did not induce hypertrophy; also recorded: blocked this effect | no effect |  |
| B2 |  |  | induced hypertrophic growth; also recorded: increase in cell area; also recorded: stepwise elevation in the cell area |
